{"source": "paper PMC3750173", "about": "“Ferredoxin Competes with Bacterial Frataxin in Binding to the Desulfurase IscS*^([image sbox.jpg])” (The Journal of Biological Chemistry, 2013)", "molecules": {"B1": {"name": "CyaY (bacterial ortholog of frataxin) (natural protein, E. coli, UniProt P27838 1-106, looked up)", "chain": "MNDSEFHRLADQLWLTIEERLDDWDGDSDIDCEINGGVLTITFENGSKIIINRQEPLHQVWLATKQGGYHFDLKGDEWICDRSGETFWDLLEQAATQQAGETVSFR", "notes": "CyaY, the bacterial ortholog of frataxin, E. coli; also called bacterial frataxin"}, "B2": {"name": "holo-Fdx (cluster-loaded E. coli ferredoxin) (natural protein)", "chain": "MPKIVILPHQDLCPDGAVLEANSGETILDAALRNGIEIEHACEKSCACTTCHCIVREGFDSLPESSEQEDDMLDKAWGLEPESRLSCQARVTDEDLVVEIPRYTINHAREH", "modifications": "[2Fe-2S] cluster bound (holo); biotinylated for BLI (site not stated); 15N or 15N/2H labelled for NMR", "notes": "ferredoxin (Fdx) of the isc operon, E. coli; fdx amplified from E. coli genomic DNA into a modified pET-24 vector; The same construct was used 15N- or 15N/2H-labelled in NMR and biotinylated on streptavidin biosensors in BLI; residues left after TEV cleavage and the NcoI site are not described; also called [15N]holo-Fdx; [15N/2H]holo-Fdx; source: E. coli, purified (nickel-nitrilotriacetic …)"}, "B3": {"name": "holo-Fdx_E57K/D60K (natural protein, E. coli)", "chain": "B2 chain with E57K, D60K", "modifications": "[2Fe-2S] cluster bound (holo); 15N labelled", "notes": "ferredoxin (Fdx) of the isc operon, E. coli; mutant of the pET-24 construct; source: E. coli, purified (nickel-nitrilotriacetic acid-agarose, TEV cleavage, Superdex G75, MonoQ); not shown: GST, N-terminal, cleaved; His tag, N-terminal, cleaved"}, "B4": {"name": "holo-Fdx_D11K (natural protein, E. coli)", "chain": "B2 chain with D11K", "modifications": "[2Fe-2S] cluster bound (holo); 15N labelled", "notes": "as for B3"}}, "key": {"[1]": {"molecular_target": "holo-Fdx (cluster-loaded E. coli ferredoxin) (E. coli) (UniProt P0A9R4)", "assay": "SAXS; solutions of 2.5-5.0 mg/ml at 10 °C; IscS alone and holo-Fdx·IscS complex"}, "[2]": {"molecular_target": "holo-Fdx (cluster-loaded E. coli ferredoxin) (E. coli) (UniProt P0A9R4)", "assay": "BLI; biotinylated holo-Fdx on streptavidin biosensors, IscS 0-60 μM; 20 mM HEPES pH 7.5, 150 mM NaCl, 2 mM TCEP, 0.5 mg/ml BSA, 25 °C; Kd from the amplitude at equilibrium"}, "[3]": {"molecular_target": "T1, IscS (E. coli desulfurase), wild type (E. coli, UniProt P0A6B7 1-404)", "T1 construct": "cysteine desulfurase IscS, E. coli; construct pET-11 IscS (EMBL-Hamburg); Dimer by SAXS; also called desulfurase IscS", "assay": "NMR titration; competition: holo-Fdx·IscS sample (with IscU added before) titrated with CyaY up to 3 molar excess over holo-Fdx; 20 mM Tris, 150 mM NaCl, 20 mM TCEP, pH 8, 298 K", "details": "both partners purified"}, "IscS_D346K/E347K": {"molecular_target": "T2, IscS_D346K/E347K (E. coli, UniProt P0A6B7 1-404, D346K | E347K)", "T2 construct": "cysteine desulfurase IscS, E. coli; site-directed mutant of pET-11 IscS", "assay": "NMR titration; 15N-SOFAST HMQC of [15N]- or [15N/2H]Fdx or Fdx mutants titrated with unlabelled IscS or IscS mutants; 20 mM Tris, 150 mM NaCl, 20 mM TCEP, pH 8, 298 K", "details": "both partners purified"}, "IscS_I314E/M315E": {"molecular_target": "T3, IscS_I314E/M315E (E. coli, UniProt P0A6B7 1-404, I314E | M315E)", "T3 construct": "cysteine desulfurase IscS, E. coli; site-directed mutant of pET-11 IscS", "assay": "NMR titration; 15N-SOFAST HMQC of [15N]- or [15N/2H]Fdx or Fdx mutants titrated with unlabelled IscS or IscS mutants; 20 mM Tris, 150 mM NaCl, 20 mM TCEP, pH 8, 298 K", "details": "both partners purified"}, "IscS_R112E/R116E": {"molecular_target": "T4, IscS_R112E/R116E (E. coli, UniProt P0A6B7 1-404, R112E | R116E)", "T4 construct": "cysteine desulfurase IscS, E. coli; site-directed mutant of pET-11 IscS; designed after the first round of docking", "assay": "NMR titration; 15N-SOFAST HMQC of [15N]- or [15N/2H]Fdx or Fdx mutants titrated with unlabelled IscS or IscS mutants; 20 mM Tris, 150 mM NaCl, 20 mM TCEP, pH 8, 298 K", "details": "both partners purified"}, "[4]": {"molecular_target": "T1, IscS (E. coli desulfurase), wild type", "assay": "NMR titration; 15N-SOFAST HMQC of [15N]- or [15N/2H]Fdx or Fdx mutants titrated with unlabelled IscS or IscS mutants; 20 mM Tris, 150 mM NaCl, 20 mM TCEP, pH 8, 298 K", "details": "both partners purified"}}, "note": "Positions count from the first letter of the chain named. Names and notes keep the numbering of the source."}
{"molecule": "IscS (E. coli desulfurase), wild type (from UniProt P0A6B7 1-404) (enzyme)", "values": [{"measurement": "percent of free components", "setting": "[1]", "value": 10, "unit": "%"}, {"measurement": "percent of the complex (OLIGOMER fit)", "setting": "[1]", "value": 80, "unit": "%"}, {"measurement": "stoichiometry N (IscS:Fdx (2:2))", "setting": "[1]", "value": 1}, {"measurement": "Kd", "setting": "[2]", "value": 1.5, "unit": "µM"}]}
{"molecule": "B1", "values": [{"measurement": "binding result", "setting": "[3]", "value": "binds"}]}
{"molecule": "B2", "values": [{"measurement": "binding result", "setting": "IscS_D346K/E347K", "value": "binds"}, {"measurement": "binding result", "setting": "IscS_I314E/M315E", "value": "binds"}, {"measurement": "binding result", "setting": "IscS_R112E/R116E", "value": "binds"}]}
{"molecule": "B3", "values": [{"measurement": "binding result", "setting": "[4]", "value": "binds"}]}
{"molecule": "B4", "values": [{"measurement": "binding result", "setting": "[4]", "value": "binds"}]}
